Series [1] deals with T1, CpgB (CCNA_01218), bacterial ceramide kinase (Caulobacter vibrioides, UniProt A0A0H3C600).
T1 construct: full-length gene, N-terminal His tag (pET28a NdeI/EcoRI), expressed in E. coli BL21(DE3), HisTrap purified, soluble; tag removal not mentioned
T1 sequence (A0A0H3C600 1-330): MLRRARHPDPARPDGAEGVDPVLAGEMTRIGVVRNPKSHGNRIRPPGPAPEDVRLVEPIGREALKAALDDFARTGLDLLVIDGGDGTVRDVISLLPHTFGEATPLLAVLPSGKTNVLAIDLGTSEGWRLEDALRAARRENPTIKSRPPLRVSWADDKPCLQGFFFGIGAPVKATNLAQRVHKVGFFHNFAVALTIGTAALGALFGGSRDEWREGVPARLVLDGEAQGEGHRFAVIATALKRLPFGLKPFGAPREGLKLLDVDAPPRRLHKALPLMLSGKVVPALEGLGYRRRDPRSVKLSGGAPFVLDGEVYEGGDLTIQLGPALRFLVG
Briefly: NBD-ceramide kinase assay, TLC fluorescence imaging. The class given is biochemical. Conditions: read-out: % inhibition at 300 nM.

Substrate in the series “purified protein”: Nc1ncnc2c1ncn2[C@@H]1O[C@H](COP(=O)(O)OP(=O)(O)OP(=O)(O)O)[C@@H](O)[C@H]1O
Description: purified protein. The following applies: 160 μM NBD-C6-ceramide fixed, 15 mM Mg2+, 20 mM Hepes pH 7.4, 30 °C.

Substrate in series [2]: CCCCCCCCCCCCC/C=C/[C@@H](O)[C@H](CO)NC(=O)CCCCCNc1ccc([N+](=O)[O-])c2nonc12
Briefly: NBD-ceramide kinase assay, TLC fluorescence imaging. The class given is biochemical, Caulobacter vibrioides. The following applies: 1 mM ATP fixed, 15 mM Mg2+, 20 mM Hepes pH 7.4, 30 °C, labelled compound (fluorescent NBD).

For `O=C(Nc1nc2ccc(NC(=O)C34CC5CC(CC(C5)C3)C4)cc2s1)c1ccccc1` [NVP-231], in series [1], the inhibition at 0.3 µM was in the range of 20 to 25%.

B1: CpgB (CCNA_01218), bacterial ceramide kinase (Caulobacter vibrioides NA1000) (protein)
chain: T1 sequence (A0A0H3C600 1-330)
notes: full-length gene, N-terminal His tag (pET28a NdeI/EcoRI), expressed in E. coli BL21(DE3), HisTrap purified, soluble; tag removal not mentioned
In the case of B1, the Km came to 0.29 ± 0.07 mM in the series “purified protein” and 19.2 ± 5.5 µM in series [2].

The term inhibition denotes the change of the read-out against control, counted positive when it falls. Usually Km stands for the concentration of substrate that gives half-maximal velocity.

(Values after article PMC10331486, “Characterization of an evolutionarily distinct bacterial ceramide kinase from Caulobacter crescentus” (The Journal of Biological Chemistry, 2023).)
